In publication PMC7960543 (The Journal of Biological Chemistry, 2021):
Numbering of substitutions follows the chain as printed. In names and notes the source's numbering stands. Bridge positions count the residues as written; N and C are the ends. Ends that are not written are not given here.

T1: recombinant soluble integrin αvβ3, P06756;P05106
T1 chain 1: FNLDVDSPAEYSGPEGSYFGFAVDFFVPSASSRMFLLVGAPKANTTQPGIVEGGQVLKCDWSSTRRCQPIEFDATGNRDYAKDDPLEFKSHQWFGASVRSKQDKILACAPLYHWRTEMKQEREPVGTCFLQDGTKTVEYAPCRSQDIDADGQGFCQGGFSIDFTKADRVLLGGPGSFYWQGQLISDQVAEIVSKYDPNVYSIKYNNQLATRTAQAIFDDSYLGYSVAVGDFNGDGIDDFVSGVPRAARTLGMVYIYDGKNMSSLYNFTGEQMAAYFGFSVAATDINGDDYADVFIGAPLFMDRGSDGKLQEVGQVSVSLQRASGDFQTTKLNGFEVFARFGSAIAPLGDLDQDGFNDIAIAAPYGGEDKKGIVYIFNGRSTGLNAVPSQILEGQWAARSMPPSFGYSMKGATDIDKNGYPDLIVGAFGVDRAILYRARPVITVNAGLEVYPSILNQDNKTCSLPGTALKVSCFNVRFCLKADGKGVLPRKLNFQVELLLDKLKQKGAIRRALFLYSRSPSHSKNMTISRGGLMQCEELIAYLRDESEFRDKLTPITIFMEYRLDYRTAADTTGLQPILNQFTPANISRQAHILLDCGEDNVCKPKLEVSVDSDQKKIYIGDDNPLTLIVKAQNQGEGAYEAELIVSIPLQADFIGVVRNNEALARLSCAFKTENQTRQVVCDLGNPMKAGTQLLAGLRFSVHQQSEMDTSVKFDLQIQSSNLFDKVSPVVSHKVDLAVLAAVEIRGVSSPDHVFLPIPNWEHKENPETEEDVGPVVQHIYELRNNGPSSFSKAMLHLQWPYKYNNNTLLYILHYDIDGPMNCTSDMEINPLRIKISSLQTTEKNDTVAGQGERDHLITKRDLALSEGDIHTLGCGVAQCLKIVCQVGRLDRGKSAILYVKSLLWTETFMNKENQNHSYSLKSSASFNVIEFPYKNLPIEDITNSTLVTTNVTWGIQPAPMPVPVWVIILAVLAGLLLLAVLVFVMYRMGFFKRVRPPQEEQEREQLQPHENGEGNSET
T1 chain 2: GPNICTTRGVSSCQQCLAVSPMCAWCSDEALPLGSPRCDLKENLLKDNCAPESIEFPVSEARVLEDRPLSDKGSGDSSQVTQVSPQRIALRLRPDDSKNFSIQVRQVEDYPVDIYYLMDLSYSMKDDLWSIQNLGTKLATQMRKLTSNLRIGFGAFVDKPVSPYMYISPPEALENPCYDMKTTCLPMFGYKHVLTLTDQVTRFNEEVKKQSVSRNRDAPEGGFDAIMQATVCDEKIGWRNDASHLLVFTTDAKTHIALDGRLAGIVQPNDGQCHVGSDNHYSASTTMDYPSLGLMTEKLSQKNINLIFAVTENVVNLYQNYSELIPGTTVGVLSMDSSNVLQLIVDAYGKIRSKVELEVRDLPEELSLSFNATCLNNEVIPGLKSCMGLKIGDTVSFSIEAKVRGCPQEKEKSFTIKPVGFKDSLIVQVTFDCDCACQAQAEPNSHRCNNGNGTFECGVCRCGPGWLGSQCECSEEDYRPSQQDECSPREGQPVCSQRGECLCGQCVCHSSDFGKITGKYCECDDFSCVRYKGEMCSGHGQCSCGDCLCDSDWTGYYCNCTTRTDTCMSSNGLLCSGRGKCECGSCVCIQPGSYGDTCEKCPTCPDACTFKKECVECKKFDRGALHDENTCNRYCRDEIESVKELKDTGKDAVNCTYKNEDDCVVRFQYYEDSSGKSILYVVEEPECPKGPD

T2: sCD40L (residues 118–261) S128R/E129G HIGM1 mutant (UniProt P29965 118-261, S128R | E129G)
T2 construct: CD40L residues 118–261; HIGM1 (hyper-IgM syndrome type 1) mutation; source: recombinant, site-directed mutagenesis of WT sCD40L, synthesized as for WT
T2 sequence (looked up): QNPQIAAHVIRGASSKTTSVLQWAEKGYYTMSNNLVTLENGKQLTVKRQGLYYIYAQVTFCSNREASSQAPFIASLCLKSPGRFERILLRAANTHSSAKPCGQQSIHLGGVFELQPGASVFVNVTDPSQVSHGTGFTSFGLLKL

T3: sCD40L (residues 118–261) K143T HIGM1 mutant (UniProt P29965 118-261, K143T)
T3 construct: CD40L residues 118–261; HIGM1 mutation; source: recombinant, site-directed mutagenesis of WT sCD40L, synthesized as for WT
T3 sequence (looked up): T2 sequence (looked up) with R11S, G12E, K26T

T4: sCD40L (residues 118–261) G144E HIGM1 mutant (UniProt P29965 118-261, G144E)
T4 construct: CD40L residues 118–261; HIGM1 mutation; source: recombinant, site-directed mutagenesis of WT sCD40L, synthesized as for WT
T4 sequence (looked up): T2 sequence (looked up) with R11S, G12E, G27E

T5: sCD40L (residues 118–261) L155P HIGM1 mutant (UniProt P29965 118-261, L155P)
T5 construct: CD40L residues 118–261; HIGM1 mutation; source: recombinant, site-directed mutagenesis of WT sCD40L, synthesized as for WT
T5 sequence (looked up): T2 sequence (looked up) with R11S, G12E, L38P

B1: recombinant soluble CD40L (residues 118–261) with no N-terminal KGD motif, wild type S128R; E129G (protein)
chain: T2 sequence (looked up)
B2: recombinant soluble CD40L (residues 118–261) with no N-terminal KGD motif, wild type K143T (protein)
chain: T2 sequence (looked up) with R11S, G12E, K26T
B3: recombinant soluble CD40L (residues 118–261) with no N-terminal KGD motif, wild type L155P (protein)
chain: T2 sequence (looked up) with R11S, G12E, L38P
B4: recombinant soluble CD40L (residues 118–261) with no N-terminal KGD motif, wild type (ligand)
chain: T2 sequence (looked up) with R11S, G12E
notes: CD40L (CD40 ligand), residues 118–261, without the KGD motif (residues 115–117); the His tag is known from detection with anti-His antibody; also called sCD40L; WT sCD40L; source: recombinant, synthesized as described (13)
B5: recombinant soluble CD40L (residues 118–261) with no N-terminal KGD motif, wild type G144E (protein)
chain: T2 sequence (looked up) with R11S, G12E, G27E
B6: CD40 fragment (residues 21–144) fused to GST (domain or fragment, UniProt P25942 21-144, looked up)
chain: EPPTACREKQYLINSQCCSLCQPGQKLVSDCTEFTETECLPCGESEFLDTWNRETHCHQHKYCDPNLGLRVQQKGTSETDTICTCEEGWHCTSEACESCVLHRSCSPGFGVKQIATGVSDTICE
notes: also called CD40 fused to GST
B7: disulfide-linked cyclic site 2 peptide of integrin β1 (C268–C295) fused to GST (peptide)
peptide: CKLGGIVLPNDGQSHLENNMYTMSHYYC
modifications: disulfide 1-28; also: fused to GST
notes: integrin β1 residues 268–295 (site 2); Cloned in pGEX-2T6His; also called the corresponding β1 peptide; 28-mer cyclic β1 peptide
B8: disulfide-linked cyclic site 2 peptide of integrin β3 (C260–C288) fused to GST (peptide)
peptide: CRLAGIVQPNDGQSHVGSDNHYSASTTMC
modifications: disulfide 1-29; also: fused to GST
notes: also called cyclic site 2 peptide from β3; 29-mer cyclic β3 peptide

Experiments:
[1] = molecular target: T1, recombinant soluble integrin αvβ3, …; test: ELISA; settings: chain shown with the change; immobilized CD40L mutants 10 μg/ml; soluble αvβ3 5 μg/ml in HEPES-Tyrodes buffer, 1 mM Mn2+; detection with anti-β3 (AV10); parent: est. 0.48; read off a plot
[2] = molecular target: B6; test: ELISA; CD40 fragment (21–144) fused to GST coated on wells (100 μg/ml in PBS); sCD40L (WT or mutant) incubated 1 h; bound sCD40L measured with HRP-conjugated anti-His; settings: both partners purified
[3] = molecular target: T2, sCD40L (residues 118–261) S128R/E129G …; test: as above; settings: both partners purified
[4] = molecular target: T3, sCD40L (residues 118–261) K143T HIGM1 …; test: as above; settings: both partners purified
[5] = molecular target: T4, sCD40L (residues 118–261) G144E HIGM1 …; test: as above; settings: both partners purified
[6] = molecular target: T5, sCD40L (residues 118–261) L155P HIGM1 …; test: as above; settings: both partners purified
[7] = molecular target: B4; test: ELISA; CD40L immobilized; cyclic site 2 peptides of β1 or β3 fused to GST in solution; bound GST measured with HRP-conjugated anti-GST; settings: both partners purified

Binder: B1
response [1]: 0.046 OD450

Binder: B2
response [1]: 0.33 OD450

Binder: B3
response [1]: 0.042 OD450

Binder: B4
binding result [2]: binds

Binder: B5
response [1]: 0.4 OD450

Binder: B6
binding result [3]: binds
binding result [4]: binds
binding result [5]: binds
binding result [6]: binds

Binder: B7
binding result [7]: binds

Binder: B8
binding result [7]: binds
